The results in this text go back to patent US20160161469A1, “SYNTHETIC MICROFLUIDIC SYSTEMS FOR WOUND HEALING” (CFD Research Corporation, priority 2013, published 2016).

This experiment has as its system whole blood. Put plainly: Varying concentrations assay of hemostatic agent in the microfluidic hemostasis device (coagulation time at the vascular injury site). In kind it is cell-based. The text has this:
Biomolecules such as tissue factor (TF) can be used as a surrogate for hemostatic agents. TF is the primary cellular initiator of blood coagulation via the extrinsic pathway. After vessel injury, the TF:VIIa complex activates the coagulation protease cascade, which leads to fibrin deposition and activation of platelets (see FIGS. 7-8). TF expression by nonvascular cells plays an essential role in hemostasis by activating blood coagulation. In contrast, TF expression by vascular cells induces intravascular thrombosis. […] TF can be allowed to adhere to the surface of the channels by incubating at 37° C. and 5% CO2. Saline wash can be initiated to wash off any residual TF.
In order to mimic these conditions observed, TNF-α at a concentration of 10 μg/ml can be injected near the wound site of the tissue channel (e.g., outer channel) from the top inlet of the device. It should be noted that endothelial cells cultured in the vascular channel (e.g., central channel) can grow near the wound site opening, and also into the tissue area. Injection of TNF-α can activate the endothelial cells adjacent to the injection site to start expressing TF. At about 8 hour after activation, hemostasis restoration experiments can be initiated.
Whole blood can be kept anticoagulated using corn trypsin inhibitor (CTI). […] The time taken to completely repair (block) the opening can be recorded (FIG. 8). […]

B1: Tissue factor: primary cellular initiator of blood coagulation via the extrinsic pathway, used as a surrogate for hemostatic agents (protein, UniProt P13726 33-295, looked up)
Tissue factor: SGTTNTVAAYNLTWKSTNFKTILEWEPKPVNQVYTVQISTKSGDWKSKCFYTTDTECDLTDEIVKDVKQTYLARVFSYPAGNVESTGSAGEPLYENSPEFTPYLETNLGQPTIQSFEQVGTKVNVTVEDERTLVRRNNTFLSLRDVFGKDLIYTLYYWKSSSSGKKTAKTNTNEFLIDVDKGENYCFSVQAVIPSRTVNRKSTDSPVECMGQEKGEFREIFYIIGAVVFVVIILVIILAISLHKCRKAGVGQSWKENSPLNVS
B1: the “time to coagulate (coagulation time of the whole blood at the vascular injury site)” value is “less than 5 minutes” (Tissue factor at higher concentration of 10 μg/ml (extreme dose scenario)) and at least 5 min (Tissue factor coated at 10 ng/ml in the tissue channel).
